This note sets out measurements from paper PMC3320567.

For the assay, the target named is STAT6 (pcDNA4-STAT6-mychis expression construct) (UniProt P42226).
Chain of UniProt P42226 (P42226 whole entry): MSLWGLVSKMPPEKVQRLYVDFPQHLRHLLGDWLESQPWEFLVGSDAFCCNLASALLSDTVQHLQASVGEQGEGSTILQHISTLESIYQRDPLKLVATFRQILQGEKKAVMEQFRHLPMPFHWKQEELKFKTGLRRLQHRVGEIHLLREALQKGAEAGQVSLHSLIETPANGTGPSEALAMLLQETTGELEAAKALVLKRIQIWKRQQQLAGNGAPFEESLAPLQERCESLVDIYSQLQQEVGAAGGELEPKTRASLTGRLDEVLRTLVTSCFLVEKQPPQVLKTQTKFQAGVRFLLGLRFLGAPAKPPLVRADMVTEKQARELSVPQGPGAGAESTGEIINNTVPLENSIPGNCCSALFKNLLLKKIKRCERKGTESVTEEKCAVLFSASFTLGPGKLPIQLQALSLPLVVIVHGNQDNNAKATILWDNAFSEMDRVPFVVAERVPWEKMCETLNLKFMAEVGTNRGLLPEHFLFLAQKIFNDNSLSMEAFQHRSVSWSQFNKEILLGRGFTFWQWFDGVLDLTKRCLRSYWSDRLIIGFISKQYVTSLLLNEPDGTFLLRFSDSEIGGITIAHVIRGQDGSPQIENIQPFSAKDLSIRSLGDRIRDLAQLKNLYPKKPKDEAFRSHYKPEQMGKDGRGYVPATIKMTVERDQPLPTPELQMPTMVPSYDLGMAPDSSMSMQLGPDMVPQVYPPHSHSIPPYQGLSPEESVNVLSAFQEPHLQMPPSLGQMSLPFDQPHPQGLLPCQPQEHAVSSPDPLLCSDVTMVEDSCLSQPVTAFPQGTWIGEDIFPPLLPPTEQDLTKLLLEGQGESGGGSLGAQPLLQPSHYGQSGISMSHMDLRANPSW

For HA-Tip-YYFY (Y127F) (natural protein), the STAT6-responsive luciferase reporter in 293T cells transfected with Lck and Tip variants, against wildtype Tip (fold reduction) came to 3.
